Results reported in US20210395390A1.

Tests used:
[1] = target: anti-FXIa antibody 076D-M007-H04-CDRL3-N110D; assay: ELISA, 076D-M007-H04-CDRL3-N110D coated at 1 µg/ml, anti-human lambda light chain-peroxidase detection
[2] = target: anti-FXIa antibody 076D-M007-H04-CDRL3-N110D; assay: cell-based or functional assay

EC50 [1] | Neutralizing activity, IC50 (biochemical FXIa assay) [2] | Neutralizing activity (biochemical FXIa assay) (% inhibition at 1.00E-06 M) [2] | aPTT 1.5 X [2] | aPTT 1.5 X (EC150) [2] | biochemical FXIa assay IC 50 [2] | plasma based FXIa assay, IC50 [2] | plasma based assay IC 50 [2] | Binder
0.484 nM | > 1000 nM | – | – | – | – | – | – | TPP-8236 (antibody, human IgG1, lambda, V domains shown) VH: EVQLLESGGGLVQPGGSLRLSCAASGFTFSDYYMNWVRQAPGKGLEWVSTISGTGAAAFYADSVRGRFTISRDNSKNTLYLQMNSLRAEDTAVYYCARDQYLTGGAFDIWGQGTLVTVSS VL: QSVLTQPPSASGTPGQRVTISCSGSSSNIGNNAVNWYQQLPGTAPKLLIYGNSNRPSGVPDRFSGSKSGTSASLAISGLRSEDEADYYCSSYRGSSTLVVFGGGTKLTVLG
0.477 nM | > 1000 nM | – | – | – | – | – | – | TPP-8246 (antibody, human IgG1, lambda, V domains shown) VH: EVQLLESGGGLVQPGGSLRLSCAASGFTFSSYSMNWVRQAPGKGLEWVSTISGSGGITHYADSVKGRFTISRDNSKNTLYLQMNSLRAEDTAVYYCARDRGNRVAARPAFDYWGQGTLVTVSS VL: QSVLTQPPSASGTPGQRVTISCTESSSNTGAGYDVHWYQQLPGTAPKLLIYGNTNRPSGVPDRFSGSKSGTSASLAISGLRSEDEADYYCASWDDNLGGWVFGGGTKLTVLG
0.485 nM | – | 75 | – | – | – | – | – | TPP-8238 (antibody, human IgG1, lambda, V domains shown) VH: EVQLLESGGGLVQPGGSLRLSCAASGFTFSSYSMNWVRQAPGKGLEWVASISGSGANTYFADTVKGRFTISRDNSKNTLYLQMNSLRAEDTAMYYCARHGQVRLNYGSPTTVYNWFDRWGQGTLVTVSS VL: QSVLTQPPSASGTPGQRVTISCTGSSSNIGAGYDVHWYQQLPGTAPKLLIYGNSNRPSGVPDRFSGSKSGTSASLAISGLRSEDEADYYCAAWHDSLNGWVFGGGTKLTVLG
0.216 nM | > 1000 nM | – | – | – | – | – | – | TPP-8240 (antibody, human IgG1, lambda, V domains shown) VH: EVQLLESGGGLVQPGGSLRLSCAASGFTFSSYAMSWVRQAPGKGLEWVAVISYDGSNKHYADSVKGRFTISRDNSKNTLYLQMNSLRAEDTAVYYCARDSMVRGKIFDYWGQGTLVTVSS VL: QSVLTQPPSASGTPGQRVTISCSGSSSNIGNNAVNWYQQLPGTAPKLLIYEDNKRPSGVPDRFSGSKSGTSASLAISGLRSEDEADYYCMIWHSSAWVFGGGTKLTVLG
0.256 nM | 1.13 nM | – | 0.3 µM | 0.3 µM | 1.1 nM | 5 nM | 5 nM | TPP-8243 (antibody, human IgG1, lambda, V domains shown) VH: EVQLLESGGGLVQPGGSLRLSCAASGFTFSNYGIHWVRQAPGKGLEWVSAIGTGGDTYYADSVMGRFTISRDNSKNTLYLQMNSLRAEDTAVYYCARDRGYYDILTGLYDYWGQGTLVTVSS VL: QSVLTQPPSASGTPGQRVTISCSGSSSNIGNNAVNWYQQLPGTAPKLLIYGNYHRPSGVPDRFSGSKSGTSASLAISGLRSEDEADYYCSSYAGSNNWVFGGGTKLTVLG
